Measurements as given in the supplement of paper PMC12764529.
± gives the half width of the 95% confidence interval.

Columns and labels:
[1] = folding stability dG unfold (combined trypsin and chymotrypsin); higher = more stable
Procedure, shortened: (§1)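 Only designs with AlphaFold2 dimer inter-PAE above 15 were retained; each was a mini-protein under 80 residues with no cysteine, in a PA-tagged cDNA display construct. After digestion with trypsin and chymotrypsin and sequencing, K50 was inferred by Bayesian fitting of counts, and unfolding free energy was derived per protease or combined against a sequence-predicted unfolded-state K50 and a shared folded-state K50.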

[2] = folding stability dG unfold from chymotrypsin proteolysis; higher = more stable
Procedure, shortened: as §1

[3] = folding stability dG unfold from trypsin proteolysis; higher = more stable
Procedure, shortened: as §1

Sequence	folding stability dG unfold [1] [kcal/mol]	folding stability dG unfold [2] [kcal/mol]	folding stability dG unfold [3] [kcal/mol]
SAGVLTIEVQMPADDAEEFAEEVADTIARRLGFPPGFKIKVKVDRFDPDNGYVRVEATIEFPLPPNQPPSAG [r5_537_TrROS]	2.43 ± 0.099	2.19 ± 0.059	2.61 ± 0.12
MRITLEHPDIKRLTIEFRPMPDGYFRMDIKVERPDGKPVPIPFPMRYEDGKMTPEMMEQMIDEAVEEALADS [r1_124_TrROS]	0.689 ± 0.21	0.617 ± 0.2	0.608 ± 0.077
SMVEIKVEPEKSIIKATLTLKDKTVEEIKQLAKEYFEKLGYKIKVEVKEVKTFEDSVTLKFEIKVPKGLVSA [r9_347_JUSTAS]	2.45 ± 0.26	2.27 ± 0.11	1.94 ± 0.1
SNYINEPIYVPPSVDPEEVKKKVEERVEEIKKKLGLPPNISVSVTPVALPEGSVTYRVTVTVDGETYNSSSA [r9_776_JUSTAS]	0.683 ± 0.15	0.488 ± 0.17	0.77 ± 0.1
SAGGAPVSVSTSTLPDGRTVTTTTYPSGSTTTTITDPVTGATATASSPGSGTTTFTDPATGATTVVGSAGGS [r16_91_JUSTAS]	1.02 ± 0.065	0.635 ± 0.029	1.36 ± 0.053
SAGGSMKITKIEIEKLPNGEYKITITKDENGNITVTVTNKNGKKKTITLKVKPEDVEEVLKELLKKSAGGSA [r2_298_TrROS_Hall]	2.73 ± 0.1	3.01 ± 0.06	1.6 ± 0.051
SAGGSGMEKYTVTIDLKFYTPETGKTYTKTVTLTTTSIEEAIKAITEKLTPPDMKIEITSITVTPSSAGGSA [r2_320_JUSTAS]	4.62 ± 0.13	4.62 ± 0.11	4.34 ± 0.25
SAGGSAIWIPVDEIRDLLKEFGIDVTVERHPNDGWVEIEIKMRRPNGKKHPIKIWVHPDGYIRIEPSAGGSA [r15_1051_TrROS]	4.03 ± 0.18	4.42 ± 0.15	3.23 ± 0.16
SAGGSMEVKVEVVKDEETKEYYVKVEIRDPKTKKTITLEYKVKEEDKEEALKKAKELAEELAKKGISAGGSA [r2_221_TrROS_Hall]	3.48 ± 0.1	3.64 ± 0.077	3.27 ± 0.14
SAGGSAGGEDRLLLRVEVIVGGVPFEPVLEVDHPELRELLEEGRVLVVELPGGAVGRLYAEPLASAGGSAGG [r6_478_TrMRF]	0.811 ± 0.1	0.704 ± 0.11	0.7 ± 0.049
SAGGSAGGSNWYQFTIPFPIPPDEPVEIKLPDGWEIHEIPPNSGRITIYMPMNNMDAIKEAIGSAGGSAGGS [r12_476_TrROS]	1.19 ± 0.056	1.01 ± 0.045	1.214 ± 0.012
SAGSMSFELTVDYEKLPDGTYRVRATITIYDPNNNNPLKTVDFEGEATSEEEAEARARARAEEVKEAASAGG [r19_255_JUSTAS]	2.69 ± 0.17	2.942 ± 0.023	1.84 ± 0.078
SAGGSAGGSAKEIEVRVEKDEETGKYRVTIRVDGKEIEIEVDVPKTLEEAERKAKELLKELSAGGSAGGSAG [r3_104_TrROS_Hall]	2.66 ± 0.066	2.77 ± 0.035	2.53 ± 0.082
SAGGSAGGSAGVKSVGPIIYPNGEVFGDVKAEEETLPNGKKKLKIYATFSDGSKYEFTLDSAGGSAGGSAGG [r11_810_TrMRF]	0.325 ± 0.26	0.728 ± 0.13	-0.261 ± 0.34
SAGGGADVISAYDPETVEELSKLPWVTSVTYDPETGRYDIRFERPDGQYNYVVDNVTKEVLEVSPVDSAGGS [r8_251_TrMRF]	1.3 ± 0.1	1.29 ± 0.053	1.03 ± 0.07
SAGGSAGGEERVRLPITLEVPVPLAPVLLVSPDGSERLVPLPSVTLRITLELELTKEEWEKLLSSAGGSAGG [r6_119_TrMRF]	3.16 ± 0.15	3.36 ± 0.13	3.06 ± 0.2

Sequence	folding stability dG unfold [1] [kcal/mol]	folding stability dG unfold [2] [kcal/mol]	folding stability dG unfold [3] [kcal/mol]
SLLELAKQANGPLKINVKSEWVTLPDGTPVEIINVEVSQDPNSDVATVTKTVVDPDKDTSSTSTSTIPLGSS [r1_448_JUSTAS]	-0.0266 ± 0.14	0.316 ± 0.077	-0.95 ± 0.17
SAGGSAALVLSREEFDGEVLLTLRDPETGEELLARLTYVPEENLVRLETTFPDGSTTTSVLPASALSAGGSA [r15_1055_JUSTAS]	1.75 ± 0.033	1.59 ± 0.059	1.794 ± 0.017
SAGGPVLVLVEVEAGFDGRPRLRRLVLPVELRPDGTVDLDAVRRAVEELLPPDWRILRIEVVPPDAPFSAGG [r13_504_TrMRF]	1.58 ± 0.047	1.46 ± 0.045	1.577 ± 0.011
SAMTLRIELTKEELEKLIKELKPGDEVELEIEVNGRTYRIRAKITRIERVDDKVYIEVELEIEELPEEESAG [r14_335_TrROS_Hall]	4.63 ± 0.13	4.75 ± 0.064	4.46 ± 0.11
SAGGSAGGSWIILIHWPNGKEIPIFFKSPEEANEIAEEIKKIFQEKGMEPVSVEIYPIKPGQMSAGGSAGGS [r12_301_TrROS]	2.32 ± 0.21	2.26 ± 0.071	2.47 ± 0.086
SAGGSAGGSAGGMILVENPSLNESTVLSKDTPISSFKVPSDNSKVRIIIIYPSNSFVVISSAGGSAGGSAGG [r7_763_JUSTAS]	1.71 ± 0.088	1.55 ± 0.14	1.85 ± 0.073
SAGLDIKKIEFDPNGYLRIEVVYDKNISIKEIIEEIKKLTGATVEKVEVKPTKNGVKAIFILKIDKNLKSAG [r5_774_TrMRF]	2.6 ± 0.11	3.052 ± 0.021	1.12 ± 0.042
SAGGSAGGSAGMVFLDPETRLLLVVHPNGEPELVLLEDGRAVLFHPSTGERREIPLAEIGSAGGSAGGSAGG [r11_297_TrMRF]	0.263 ± 0.12	0.318 ± 0.12	-0.195 ± 0.13
SAGGGIVIPVPAETARELLEKLAPDGADVTVESLGSLGGGEVYRATFTDPVFGNTVDIEVLVGPEGGSAGGS [r16_486_TrMRF]	0.437 ± 0.096	0.301 ± 0.13	0.392 ± 0.028
SAGGTIKITIKAENLTEEEKEELAKKIADELKKKGYKVKKVEVTVEKEKEKTVTITLENGKKIEVKLSAGGS [r8_485_TrROS_Hall]	2.31 ± 0.18	2.56 ± 0.038	1.49 ± 0.072
SMLVSVTFPLTLEPEEGDHTVRIYATAPDGSSLGEVTAPVKAVGDKVEFEVTATFPLPEGAVIERIETEPSA [r9_292_TrMRF]	0.869 ± 0.084	0.857 ± 0.12	0.681 ± 0.025
SAGGMPEGMVVLRIRVRVEKVEVRRDPAVPGRVSRRVEVREVEIELVVDSREALEALRELGFEIEEVSAGGS [r8_482_TrROS_Hall]	4.22 ± 0.08	4.43 ± 0.11	3.79 ± 0.099
SAGGSAGGSPKPIPIKIDEVWPNPDNGKDYIVKIEFPDGKKHTFTSPEDIRKLPGFDVEVYELSAGGSAGGS [r20_192_TrROS]	0.621 ± 0.2	0.783 ± 0.27	0.123 ± 0.058
EKYIVKIKITVRRKVETETLPDGSKKTRYETKTLEIEIEVSLEELKKLLEELNLPEDEITSVEIEVYPEEES [r1_351_TrROS_Hall]	4.31 ± 0.73	4.58 ± 0.32	3.3 ± 0.24
SAGMLRVDIEIPPAFRKMLKNAPPGETVMFELPIKIKIEYYQPDGGKPEPKEHEQPFPVQFMVVLPPDGSAG [r5_946_TrROS]	2.84 ± 0.2	3.18 ± 0.12	2.14 ± 0.16
